Test results: paper PMC4757811 (Biochemistry, 2015)
Square brackets hold non-standard residues; d marks the D form. Ends that are not written are not given here. pY = N[C@@H](Cc1ccc(OP(=O)(O)O)cc1)C(=O)O

Biological target: Brk SH2 domain (UniProt Q13882 78-170)
Assay: ITC

Sequence of Brk SH2 domain (Q13882 78-170): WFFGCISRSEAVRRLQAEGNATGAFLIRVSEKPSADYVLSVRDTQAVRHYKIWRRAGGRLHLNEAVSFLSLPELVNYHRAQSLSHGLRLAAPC

Row | Kd | Binder
1 | 15 µM | FTS[pY]ENPTG [Phosphorylated Brk C-terminal tail peptide, wild type (FTSpYENPTG)]
2 | 53 µM | FTS[pY]ENLTG [Phosphorylated Brk C-terminal tail peptide with the P450L substitution (FTSpYENLTG)]
